The target in assay [1] is T1, human calcitonin receptor (human, UniProt P30988 25-474).
T1 construct: whole, on cells; Membranes of BHK cells stably transfected with the human calcitonin receptor (Assay VII); also called hCTR; hCT
T1 sequence (looked up): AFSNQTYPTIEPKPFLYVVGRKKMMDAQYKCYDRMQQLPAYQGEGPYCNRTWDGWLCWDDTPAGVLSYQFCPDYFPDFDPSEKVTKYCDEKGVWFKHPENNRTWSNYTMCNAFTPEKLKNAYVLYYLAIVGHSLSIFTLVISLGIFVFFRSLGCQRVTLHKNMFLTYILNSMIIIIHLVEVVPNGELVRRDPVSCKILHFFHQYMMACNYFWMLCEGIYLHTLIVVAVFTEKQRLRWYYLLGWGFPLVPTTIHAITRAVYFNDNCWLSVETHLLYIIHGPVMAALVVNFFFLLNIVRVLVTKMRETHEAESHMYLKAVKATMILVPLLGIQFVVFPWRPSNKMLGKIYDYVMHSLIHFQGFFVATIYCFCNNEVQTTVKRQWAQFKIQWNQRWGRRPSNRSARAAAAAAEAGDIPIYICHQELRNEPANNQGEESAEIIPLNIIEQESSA
Kind of assay: SPA competition against 125I-calcitonin, membranes of BHK cells with human calcitonin receptor (Assay VII). The method, boiled down: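 BHK hCTR membranes 35 ng/μL + SPA beads 0.05 mg/well; buffer 50 mM Hepes pH 7.4, 1 mM CaCl2, 5 mM MgCl₂, 0.1% OA, 0.02% Tween20. 120 min, 25° C., shaking. Scintillation count; IC50 by one-site binding competition.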

The target of assay [2] is T1, human calcitonin receptor. The experiment in a line: ratio of IC50 at hCTR over IC50 at hAmylin-R (SPA competition assays). In short, it runs like this: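 Membranes (35 ng/μL final) + SPA beads, 50 mM Hepes pH 7.4 buffer with 1 mM CaCl2, 5 mM MgCl₂, 0.1% OA, 0.02% Tween20; 120 min, 25° C, shaking; centrifuged, counted; IC₅₀ by one-site binding competition.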

Numbered stars: 1 amine (or outer) side, 2 acyl side, 3 side chain; on linkers, the order of the positions; unused ones are H or OH. Bridge positions count the residues as written; N and C are the ends. Side chains are listed from the residue outwards. Ends that are not written are not given here. * marks the point of attachment. C20 diacid = O=C(O)CCCCCCCCCCCCCCCCCCC(=O)*; γGlu = O=C(O)[C@H](CCC(=O)[*:2])N[*:1]

B1: N^ε1-[(4S)-4-carboxy-4-[[(4S)-4-carboxy-4-(19-carboxynonadecanoylamino)butanoyl]amino]butanoyl]-[Arg17,Pro21,Pro27,Pro31,Pro34,Arg35]-h-amylin (peptide)
peptide: K([γGlu-γGlu-C20 diacid])CNTATCATQRLANFLRHSSPNFGAIPSSTPVGPRTY-NH2
modifications: disulfide 2-7; N-terminus assumed
SMILES: CC[C@H](C)[C@H](NC(=O)[C@H](C)NC(=O)CNC(=O)[C@H](Cc1ccccc1)NC(=O)[C@H](CC(N)=O)NC(=O)[C@@H]1CCCN1C(=O)[C@H](CO)NC(=O)[C@H](CO)NC(=O)[C@H](Cc1c[nH]cn1)NC(=O)[C@H](CCCNC(=N)N)NC(=O)[C@H](CC(C)C)NC(=O)[C@H](Cc1ccccc1)NC(=O)[C@H](CC(N)=O)NC(=O)[C@H](C)NC(=O)[C@H](CC(C)C)NC(=O)[C@H](CCCNC(=N)N)NC(=O)[C@H](CCC(N)=O)NC(=O)[C@@H](NC(=O)[C@H](C)NC(=O)[C@@H]1CSSC[C@H](NC(=O)[C@@H](N)CCCCNC(=O)CC[C@H](NC(=O)CC[C@H](NC(=O)CCCCCCCCCCCCCCCCCCC(=O)O)C(=O)O)C(=O)O)C(=O)N[C@@H](CC(N)=O)C(=O)N[C@@H]([C@@H](C)O)C(=O)N[C@@H](C)C(=O)N[C@@H]([C@@H](C)O)C(=O)N1)[C@@H](C)O)C(=O)N1CCC[C@H]1C(=O)N[C@@H](CO)C(=O)N[C@@H](CO)C(=O)N[C@H](C(=O)N1CCC[C@H]1C(=O)N[C@H](C(=O)NCC(=O)N1CCC[C@H]1C(=O)N[C@@H](CCCNC(=N)N)C(=O)N[C@H](C(=O)N[C@@H](Cc1ccc(O)cc1)C(N)=O)[C@@H](C)O)C(C)C)[C@@H](C)O
For the molecule B1, the IC50 (commonly the concentration at which inhibition is half-maximal) in assay [1] was 42.8 nM. In assay [2], the “Ratio hCT/hAmylin binding” value was found to be 48.6.

B2: N^ε1-[(4S)-4-carboxy-4-[[(4S)-4-carboxy-4-(19-carboxynonadecanoylamino)butanoyl]amino]butanoyl]-[Asp14,Arg17,Pro21,Pro27,Pro34,Glu35]-h-amylin (peptide)
peptide: K([γGlu-γGlu-C20 diacid])CNTATCATQRLADFLRHSSPNFGAIPSSTNVGPETY-NH2
modifications: disulfide 2-7
B2: in assay [1], the concentration for half-maximal inhibition (IC50) was 8.56 nM. In addition, the “Ratio hCT/hAmylin binding” value in assay [2] turned out to be 49.8.

B3: N^ε1-[(4S)-4-carboxy-4-[[(4S)-4-carboxy-4-(19-carboxynonadecanoylamino)butanoyl]amino]butanoyl]-[Asp14,Arg17,Pro21,Pro27,Pro34,Arg35]-h-amylin (peptide)
peptide: K([γGlu-γGlu-C20 diacid])CNTATCATQRLADFLRHSSPNFGAIPSSTNVGPRTY-NH2
modifications: disulfide 2-7
notes: also called compound 130
Consider B3, for which the IC50 in assay [1] worked out at 127 nM. Also, the “Ratio hCT/hAmylin binding” value in assay [2] is 280.

B4: N^ε1-[(4S)-4-carboxy-4-[[(4S)-4-carboxy-4-(19-carboxynonadecanoylamino)butanoyl]amino]butanoyl]-[Glu14,Arg17,Pro21,Pro27,Arg34,Glu35]-h-amylin (peptide)
peptide: K([γGlu-γGlu-C20 diacid])CNTATCATQRLAEFLRHSSPNFGAIPSSTNVGRETY-NH2
modifications: disulfide 2-7; N-terminus assumed
SMILES: CC[C@H](C)[C@H](NC(=O)[C@H](C)NC(=O)CNC(=O)[C@H](Cc1ccccc1)NC(=O)[C@H](CC(N)=O)NC(=O)[C@@H]1CCCN1C(=O)[C@H](CO)NC(=O)[C@H](CO)NC(=O)[C@H](Cc1c[nH]cn1)NC(=O)[C@H](CCCNC(=N)N)NC(=O)[C@H](CC(C)C)NC(=O)[C@H](Cc1ccccc1)NC(=O)[C@H](CCC(=O)O)NC(=O)[C@H](C)NC(=O)[C@H](CC(C)C)NC(=O)[C@H](CCCNC(=N)N)NC(=O)[C@H](CCC(N)=O)NC(=O)[C@@H](NC(=O)[C@H](C)NC(=O)[C@@H]1CSSC[C@H](NC(=O)[C@@H](N)CCCCNC(=O)CC[C@H](NC(=O)CC[C@H](NC(=O)CCCCCCCCCCCCCCCCCCC(=O)O)C(=O)O)C(=O)O)C(=O)N[C@@H](CC(N)=O)C(=O)N[C@@H]([C@@H](C)O)C(=O)N[C@@H](C)C(=O)N[C@@H]([C@@H](C)O)C(=O)N1)[C@@H](C)O)C(=O)N1CCC[C@H]1C(=O)N[C@@H](CO)C(=O)N[C@@H](CO)C(=O)N[C@H](C(=O)N[C@@H](CC(N)=O)C(=O)N[C@H](C(=O)NCC(=O)N[C@@H](CCCNC(=N)N)C(=O)N[C@@H](CCC(=O)O)C(=O)N[C@H](C(=O)N[C@@H](Cc1ccc(O)cc1)C(N)=O)[C@@H](C)O)C(C)C)[C@@H](C)O
With B4, the IC50 in assay [1] came to 14.1 nM. For the same molecule, in assay [2], the “Ratio hCT/hAmylin binding” value came to 14.7.

The values are drawn from patent US20140087995A1 (published 2014).
